Results on four molecules are retold here after publication PMC3629905 (Biochemistry, 2013).

The subject of data set [1] is CCCCCC(=O)CC(=O)N[C@H]1CCOC1=O. The data set is described as follows: purified protein. The conditions noted are these: pH 8.3; 37.0 °C.
Data set [2] has as its system CCCC(=O)CC(=O)N[C@H]1CCOC1=O. The data set is described as follows: purified protein. The following applies: pH 8.3; 37.0 °C.
Data set [3] concerns the target GKL (quorum-quenching lactonase from Geobacillus kaustophilus) (Geobacillus kaustophilus, UniProt Q5KZU5, E101G/R230C/D266N).

What is called Km is the substrate concentration at which the rate is half of its maximum. What is called kcat/Km is the second-order rate constant that governs catalysis at low substrate concentration. In the case of “GKL (quorum-quenching lactonase from Geobacillus kaustophilus) (Geobacillus kaustophilus HTA426; E101N)”, in data set [1], the Km is 4.0 ± 3.2 mM and the kcat/Km worked out at 53 M⁻¹ s⁻¹.

For “GKL (quorum-quenching lactonase from Geobacillus kaustophilus) (Geobacillus kaustophilus HTA426; E101G/R230C)”, in data set [2], the Km was 22 ± 12 mM and the kcat/Km came to 50 M⁻¹ s⁻¹. Besides, in data set [1], the Km is reported as 3.0 ± 0.4 mM and the kcat/Km is 700 M⁻¹ s⁻¹.

Turning to “GKL (quorum-quenching lactonase from Geobacillus kaustophilus) (Geobacillus kaustophilus HTA426)”, in data set [1], the Km worked out at 5.5 ± 2.1 mM and the kcat/Km was 38 M⁻¹ s⁻¹.

Regarding `CCCC(=O)NC1CCOC1=O` (racemic) [C4-HSL, N-butyryl-L-homoserine lactone], in data set [3], the “X-ray crystal structure, 2.2 Å” value was “its catalytically inactive variant E101G/R230C/D266N with the quorum-molecule C4-HSL bound in the active site”.
